Starred links: 1 amine or outer side, 2 acyl side, 3 side chain; linkers in the order of their positions; H or OH if unused. Positions of bridges follow the written chain, without caps; N, C: chain ends. No end group written: not given here. TBMB = c1c(C[*:1])cc(C[*:3])cc1C[*:2]
Molecular target: extracellular domain of Transferrin Receptor 1 (UniProt P02786 89-760)
Test: BLI

Chain of extracellular domain of Transferrin Receptor 1 (P02786 89-760): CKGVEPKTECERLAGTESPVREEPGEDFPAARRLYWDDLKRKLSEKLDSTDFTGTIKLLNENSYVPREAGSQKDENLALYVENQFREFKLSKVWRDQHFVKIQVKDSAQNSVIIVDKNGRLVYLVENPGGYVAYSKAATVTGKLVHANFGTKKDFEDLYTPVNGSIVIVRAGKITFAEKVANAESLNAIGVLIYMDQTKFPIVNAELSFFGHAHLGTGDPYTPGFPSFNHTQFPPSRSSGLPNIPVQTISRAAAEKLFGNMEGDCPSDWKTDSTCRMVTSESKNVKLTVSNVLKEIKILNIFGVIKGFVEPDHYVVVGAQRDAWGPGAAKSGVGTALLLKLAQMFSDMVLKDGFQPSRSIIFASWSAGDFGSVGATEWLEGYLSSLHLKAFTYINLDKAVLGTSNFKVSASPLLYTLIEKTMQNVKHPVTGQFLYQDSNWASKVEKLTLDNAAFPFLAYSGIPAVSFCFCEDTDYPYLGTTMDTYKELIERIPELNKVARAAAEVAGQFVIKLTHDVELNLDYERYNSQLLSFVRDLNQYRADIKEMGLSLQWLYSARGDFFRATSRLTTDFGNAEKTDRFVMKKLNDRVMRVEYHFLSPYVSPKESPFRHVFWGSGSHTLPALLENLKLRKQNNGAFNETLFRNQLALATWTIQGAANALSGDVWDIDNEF

B1: BrainBike-4 as used in biolayer interferometry (peptide)
chain: CVHWDCRQWC
modifications: linker 1-6-10 via TBMB
Kd: 25 µM

Source: PMC10763564 (2023)
